Laboratory results published in publication PMC3798688, “A Structural Basis for BRD2/4-Mediated Host Chromatin Interaction and Oligomer Assembly of Kaposi Sarcoma-Associated Herpesvirus and Murine Gammaherpesvirus LANA Proteins” (PLoS Pathogens, 2013).

B1: 15N-BRD2 ET(632–713), with N-terminal GSGS (domain or fragment)
chain: GSGSDSEEEEESRPMSYDEKRQLSLDINKLPGEKLGRVVHIIQAREPSLRDSNPEEIEIDFETLKPSTLRELERYVLSCLRKKPRK
notes: also called 15N-BRD2(632–713); source: E. coli BL21(DE3), purified (Ni-NTA with guanidine gradient, thrombin cleavage)
B2: kLANA(1013–1149) (domain or fragment)
chain: GSRYQQPPVPYRQIDDCPAKARPQHIFYRRFLGKDGRRDPKCQWKFAVIFWGNDPYGLKKLSQAFQFGGVKAGPVSCLPHPGPDQSPITYCVYVYCQNKDTSKKVQMARLAWEASHPLAGNLQSSIVKFKKPLPLTQPG
notes: source: E. coli BL21(DE3), purified (Ni-NTA with guanidine gradient, thrombin cleavage)
B3: mLANA(124–260) (domain or fragment)
chain: GSKRYSRYQKPHNPSDPLPKKYQGMRRHLQVTAPRLFDPEGHPPTHFKSAVMFSSTHPYTLNKLHKCIQSKHVLSTPVSCLPLVPGTTQQCVTYYLLSFVEDKKQAKKLKRVVLAYCEKYHSSVEGTIVKAKPYFPLPE
notes: as for B2
B4: kLANA(996–1153) (domain or fragment)
chain: GSGVRMRRVPVTHPKKPHPRYQQPPVPYRQIDDCPAKARPQHIFYRRFLGKDGRRDPKCQWKFAVIFWGNDPYGLKKLSQAFQFGGVKAGPVSCLPHPGPDQSPITYCVYVYCQNKDTSKKVQMARLAWEASHPLAGNLQSSIVKFKKPLPLTQPGENQG
notes: as for B2

Columns and labels:
kLANA(996–1153) = target: B4; assay: NMR titration; settings: both partners purified
[1] = target: the molecule itself; assay: asymmetric field flow fractionation with multi-angle static light scattering; 40 µg protein per run; 10 mM bis-tris-Cl pH 6.5, 50 mM NaCl, 0.01% NaN3
crystal structure = target: the molecule itself; assay: crystal structure

Binder | binding result (kLANA(996–1153)) | stoichiometry N [1] | stoichiometry N (crystal structure)
B1 | binds |  | 
B2 |  | 2 | 10
B3 |  |  | 2
B4 |  |  | 8
